Residue numbers refer to the chain shown, from its start. Names may count otherwise.
B1: K193G (receptor)
extracellular domains 1, 2 and 3: QPSVSPGEPSPPSIHPGKSDLIVRVGDEIRLLCTDPGFVKWTFEILDETNENKQNEWITEKAEATNTGKYTCTNKHGLSNSIYVFVRDPAKLFLVDRSLYGKEDNDTLVRCPLTDPEVTNYSLKGCQGKPLPKDLRFIPDPKAGIMIKSVKRAYHRLCLHCSVDQEGGSVLSEKFILKVRPAFKAVPVVSVSKASYLLREGEEFTVTCTIKDVSSSVYSTWKRENSQTKLQEKYNSWHHGDFNYERQATLTISSARVNDSGVFMCYANNTFGSANVTTTLEVVD
notes: not in the list MOLECULES; also called human CD117 D1-2-3 variant K193G
B2: K193M (receptor)
extracellular domains 1, 2 and 3: B1 extracellular domains 1, 2 and 3 with G168M
notes: not in the list MOLECULES; also called human CD117 D1-2-3 variant K193M
B3: V120I (receptor)
extracellular domains 1, 2 and 3: B1 extracellular domains 1, 2 and 3 with V95I, G168K
notes: not in the list MOLECULES; also called human CD117 D1-2-3 variant V120I
B4: K193T (receptor)
extracellular domains 1, 2 and 3: B1 extracellular domains 1, 2 and 3 with G168T
notes: not in the list MOLECULES; also called human CD117 D1-2-3 variant K193T
B5: K193E (receptor)
extracellular domains 1, 2 and 3: B1 extracellular domains 1, 2 and 3 with G168E
notes: not in the list MOLECULES; also called human CD117 D1-2-3 variant K193E
B6: K193D (receptor)
extracellular domains 1, 2 and 3: B1 extracellular domains 1, 2 and 3 with G168D
notes: not in the list MOLECULES; also called human CD117 D1-2-3 variant K193D
B7: D121S (receptor)
extracellular domains 1, 2 and 3: B1 extracellular domains 1, 2 and 3 with D96S, G168K
notes: not in the list MOLECULES; also called human CD117 D1-2-3 variant D121S
B8: E73G (receptor)
extracellular domains 1, 2 and 3: B1 extracellular domains 1, 2 and 3 with E48G, G168K
notes: not in the list MOLECULES; also called human CD117 D1-2-3 variant E73G
B9: S123P: variant of human CD117 with substitution S123P (protein)
chain: QPSVSPGEPSPPSIHPGKSDLIVRVGDEIRLLCTDPGFVKWTFEILDETNENKQNEWITEKAEATNTGKYTCTNKHGLSNSIYVFVRDPAKLFLVDRPLYGKEDNDTLVRCPLTDPEVTNYSLKGCQGKPLPKDLRFIPDPKAGIMIKSVKRAYHRLCLHCSVDQEGKSVLSEKFILKVRPAFKAVPVVSVSKASYLLREGEEFTVTCTIKDVSSSVYSTWKRENSQTKLQEKYNSWHHGDFNYERQATLTISSARVNDSGVFMCYANNTFGSANVTTTLEVVDKG
B10: D121R: variant of human CD117 with substitution D121R (protein)
chain: B9 chain with D96R, P98S
B11: S123Q: variant of human CD117 with substitution S123Q (protein)
chain: B9 chain with P98Q
B12: D121Y: variant of human CD117 with substitution D121Y (protein)
chain: B9 chain with D96Y, P98S
B13: S123M: variant of human CD117 with substitution S123M (protein)
chain: B9 chain with P98M
B14: D121T: variant of human CD117 with substitution D121T (protein)
chain: B9 chain with D96T, P98S

Columns and labels:
antibody Refmab #1 = assay: Octet screen: binding of CD117 D1-2-3 variants to captured Refmab #1; conditions: nm shift at end of association, top analyte concentration (500 nM)
antibody Refmab #1, sequence (as listed by the source): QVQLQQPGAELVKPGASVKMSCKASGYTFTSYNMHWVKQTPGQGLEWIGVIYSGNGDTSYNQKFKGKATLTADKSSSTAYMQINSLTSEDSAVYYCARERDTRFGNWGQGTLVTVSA
antibody Refmab #1, sequence (as listed by the source): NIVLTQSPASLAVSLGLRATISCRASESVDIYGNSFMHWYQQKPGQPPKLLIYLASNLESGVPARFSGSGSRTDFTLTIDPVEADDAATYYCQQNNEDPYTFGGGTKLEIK
Method: A more sophisticated analysis of binding to the elected variants was performed with antibody Refmab #1. Binding of Refmab #1 to wt and variants (analyte) was measured in an Octet system RED96e or R8 at 25° C. with shaking at 1,000 rpm using 1× kinetic buffer (Sartorius, PN: 18-1105). First, the elected variants were screened for their ability to bind Refmab #1 using three different concentrations of analytes. Antibody Refmab #1 was captured by Anti-Human Fc capture biosensor (AHC) (Sartorius, PN: 18-5060) for 300 s at 0.5 to 1 μg/mL. As an analyte, human CD117 wt and variants, containing only domains 1, 2 and 3 (CD117 D1-2-3), was titrated at 500 nM, 50 nM and 5 nM. Association and dissociation of the analyte to Refmab #1 was monitored for 300 s and 900 s, respectively. Reference subtraction was performed against buffer only wells. AHC tips were regenerated using 10 mM Gly-HCl pH 1.7. Data were analyzed using the Octet Data Analysis software HT 12.0. Data were fitted (when possible) to a 1:1 binding model. Kinetic rates ka and […] globally fitted. Binding level of the elected variants were compared to wild type and are shown as percent in FIG. 7. For this qualitative analysis, the binding level of the top analyte concentration at end of the association step was used.

Biotinylated Avitag-hSCF = biological target: T1, Biotinylated Avitag-hSCF (human, UniProt P21583 26-190, limits assumed, biotinylated Avitag); assay: BLI (Octet), steady state: biotinylated SCF on streptavidin biosensor, CD117 D1-2-3 variant as analyte; KD relative to WT
T1 construct: Bought reagent; also called hSCF (Acros Biosystems SCF-H82E1)
T1 sequence (P21583 26-190 limits assumed): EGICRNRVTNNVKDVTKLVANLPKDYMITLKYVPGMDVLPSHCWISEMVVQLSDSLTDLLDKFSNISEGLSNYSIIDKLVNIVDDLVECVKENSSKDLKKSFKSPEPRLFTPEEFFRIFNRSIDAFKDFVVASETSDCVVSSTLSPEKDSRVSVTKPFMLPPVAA
Method: Domains 4 and 5 were used as a negative, non-binding control.
Association was monitored for 300 s and dissociation for 600 s. […] Reference subtraction was performed against buffer only wells. Biosensors were not regenerated and a new set of SA biosensors was used for each analyte. Data were analyzed using the Octet Data Analysis software HT 12.0. Steady state data analysis was performed due to the fast on/off nature of the interaction.

Molecule | binding to Refmab #1 compared to wild type (antibody Refmab #1) | binding result (Biotinylated Avitag-hSCF)
S1231: variant of human CD117, printed S1231, probably substitution S123I | strong decrease in binding | –
B1 | – | binds
B2 | – | binds
B3 | – | binds
B4 | – | binds
B5 | – | binds
B6 | – | binds
B7 | – | binds
B8 | – | binds
B9 | particular strong decrease in binding | –
B10 | strong decrease in binding | –
B11 | strong decrease in binding | –
B12 | particular strong decrease in binding | –
B13 | strong decrease in binding | –
B14 | particular strong decrease in binding | –

— patent US20250057951A1, “DISCERNIBLE CELL SURFACE PROTEIN VARIANTS OF CD117 FOR USE IN CELL THERAPY” (UNIVERSITÄT BASEL, priority 2021, published 2025)
